{
  "source": "IntAct's records for PubMed 19559006",
  "parents": {"B1": {"name": "Kinesin-like protein KIF21A (Homo sapiens), Q7Z4S6 (parent)", "chain": "MLGAPDESSVRVAVRIRPQLAKEKIEGCHICTSVTPGEPQVFLGKDKAFTFDYVFDIDSQQEQIYIQCIEKLIEGCFEGYNATVFAYGQTGAGKTYTMGTGFDVNIVEEELGIISRAVKHLFKSIEEKKHIAIKNGLPAPDFKVNAQFLELYNEEVLDLFDTTRDIDAKSKKSNIRIHEDSTGGIYTVGVTTRTVNTESEMMQCLKLGALSRTTASTQMNVQSSRSHAIFTIHVCQTRVCPQIDADNATDNKIISESAQMNEFETLTAKFHFVDLAGSERLKRTGATGERAKEGISINCGLLALGNVISALGDKSKRATHVPYRDSKLTRLLQDSLGGNSQTIMIACVSPSDRDFMETLNTLKYANRARNIKNKVMVNQDRASQQINALRSEITRLQMELMEYKTGKRIIDEEGVESINDMFHENAMLQTENNNLRVRIKAMQETVDALRSRITQLVSDQANHVLARAGEGNEEISNMIHSYIKEIEDLRAKLLESEAVNENLRKNLTRATARAPYFSGSSTFSPTILSSDKETIEIIDLAKKDLEKLKRKEKRKKKRLQKLEESNREERSVAGKEDNTDTDQEKKEEKGVSERENNELEVEESQEVSDHEDEEEEEEEEEDDIDGGESSDESDSESDEKANYQADLANITCEIAIKQKLIDELENSQKRLQTLKKQYEEKLMMLQHKIRDTQLERDQVLQNLGSVESYSEEKAKKVRSEYEKKLQAMNKELQRLQAAQKEHARLLKNQSQYEKQLKKLQQDVMEMKKTKVRLMKQMKEEQEKARLTESRRNREIAQLKKDQRKRDHQLRLLEAQKRNQEVVLRRKTEEVTALRRQVRPMSDKVAGKVTRKLSSSDAPAQDTGSSAAAVETDASRTGAQQKMRIPVARVQALPTPATNGNRKKYQRKGLTGRVFISKTARMKWQLLERRVTDIIMQKMTISNMEADMNRLLKQREELTKRREKLSKRREKIVKENGEGDKNVANINEEMESLTANIDYINDSISDCQANIMQMEEAKEEGETLDVTAVINACTLTEARYLLDHFLSMGINKGLQAAQKEAQIKVLEGRLKQTEITSATQNQLLFHMLKEKAELNPELDALLGHALQDLDSVPLENVEDSTDEDAPLNSPGSEGSTLSSDLMKLCGEVKPKNKARRRTTTQMELLYADSSELASDTSTGDASLPGPLTPVAEGQEIGMNTETSGTSAREKELSPPPGLPSKIGSISRQSSLSEKKIPEPSPVTRRKAYEKAEKSKAKEQKHSDSGTSEASLSPPSSPPSRPRNELNVFNRLTVSQGNTSVQQDKSDESDSSLSEVHRSSRRGIINPFPASKGIRAFPLQCIHIAEGHTKAVLCVDSTDDLLFTGSKDRTCKVWNLVTGQEIMSLGGHPNNVVSVKYCNYTSLVFTVSTSYIKVWDIRDSAKCIRTLTSSGQVTLGDACSASTSRTVAIPSGENQINQIALNPTGTFLYAASGNAVRMWDLKRFQSTGKLTGHLGPVMCLTVDQISSGQDLIITGSKDHYIKMFDVTEGALGTVSPTHNFEPPHYDGIEALTIQGDNLFSGSRDNGIKKWDLTQKDLLQQVPNAHKDWVCALGVVPDHPVLLSGCRGGILKVWNMDTFMPVGEMKGHDSPINAICVNSTHIFTAADDRTVRIWKARNLQDGQISDTGDLGEDIASN", "partner": "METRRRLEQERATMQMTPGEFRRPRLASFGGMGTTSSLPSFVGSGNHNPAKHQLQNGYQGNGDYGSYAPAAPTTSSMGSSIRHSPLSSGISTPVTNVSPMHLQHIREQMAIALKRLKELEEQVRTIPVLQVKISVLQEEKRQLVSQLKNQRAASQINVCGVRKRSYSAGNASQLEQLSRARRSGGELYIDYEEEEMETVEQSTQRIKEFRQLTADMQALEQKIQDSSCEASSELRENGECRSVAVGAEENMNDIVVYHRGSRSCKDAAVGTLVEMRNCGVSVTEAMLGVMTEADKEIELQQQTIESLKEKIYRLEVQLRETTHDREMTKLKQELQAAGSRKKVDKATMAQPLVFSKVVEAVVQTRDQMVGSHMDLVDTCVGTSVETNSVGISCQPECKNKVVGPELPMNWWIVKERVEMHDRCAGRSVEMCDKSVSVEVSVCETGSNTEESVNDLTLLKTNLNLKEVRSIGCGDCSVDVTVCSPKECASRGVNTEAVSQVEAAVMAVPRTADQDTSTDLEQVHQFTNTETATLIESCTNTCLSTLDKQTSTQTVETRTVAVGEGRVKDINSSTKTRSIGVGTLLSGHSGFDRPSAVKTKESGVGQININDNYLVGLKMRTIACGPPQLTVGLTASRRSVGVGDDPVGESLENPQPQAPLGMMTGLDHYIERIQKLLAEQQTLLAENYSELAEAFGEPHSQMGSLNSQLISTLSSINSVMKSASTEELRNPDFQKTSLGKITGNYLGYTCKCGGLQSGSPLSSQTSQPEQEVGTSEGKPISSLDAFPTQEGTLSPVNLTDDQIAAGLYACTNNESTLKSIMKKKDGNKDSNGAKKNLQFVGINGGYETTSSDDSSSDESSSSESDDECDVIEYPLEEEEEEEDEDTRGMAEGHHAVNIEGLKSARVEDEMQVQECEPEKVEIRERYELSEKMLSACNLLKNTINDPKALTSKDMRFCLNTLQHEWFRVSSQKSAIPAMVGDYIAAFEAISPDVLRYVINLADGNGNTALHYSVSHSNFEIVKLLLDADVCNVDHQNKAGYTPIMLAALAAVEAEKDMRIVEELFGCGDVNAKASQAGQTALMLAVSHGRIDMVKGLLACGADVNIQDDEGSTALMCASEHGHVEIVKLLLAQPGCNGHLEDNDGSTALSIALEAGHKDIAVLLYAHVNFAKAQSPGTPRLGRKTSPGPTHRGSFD"}},
  "data": [
    {"variants_of": "B1", "settings": "with KANK1, Q14678-2", "values": [
      {"variant": "M947T", "effect of a mutation on the interaction": "increasing interaction"},
      {"variant": "R954W", "effect of a mutation on the interaction": "increasing interaction"}
    ]}
  ]
}
